This series concerns MS2 coat protein. Nature of the series: apparent KD of MS2 coat protein; designed switch direction (-1 OFF switch, 1 ON switch): 1; higher = weaker reporter binding. In outline: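 Designed RNA switches with common flanks were made on Illumina chips by stalled E. coli RNA polymerase. Titration with SNAP-549-labelled MS2 coat protein doubled from 0.7 or 1.5 nM up to 3 µM. Apparent KD is each design's median over clusters after curve-fitting normalised fluorescence.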

Setting [1] is: input ligand: microRNA oligo, concentration not stated.
[2] abbreviates: Eterna round: R95, input ligand: FMN 200 uM.
The mark [3] stands for this setting: Eterna round: R95, input ligand: microRNA oligo, concentration not stated.
Setting [4] is: Eterna round: R95, input ligand: none.

Take “GGAGCCAAGGCAGGAUAUUCAUAUUAUAAACAUGAGGAUCACCCAUGUAGGGCCAGAAGGCCUUGGGAGAAGGGCCAUGGCUCG [Xeonanis - 13 mod16] (Eterna round: R96, puzzle: Same State NG 2)”: the “apparent KD of MS2 coat protein” value amounted to 20.2 nM (input ligand: FMN 200 uM), 53.8 nM under setting [1] and 71 nM (input ligand: none).

“GGAGCCGACACCGAGGAUAUUCAUAUUAAAACAUGAGGAUCACCCAUGUAGGCCAGAAGGCCUUGGGAGAAGGCGGAUCGGCUCG [Xeonanis - 8] (puzzle: Same State 2)”: the “apparent KD of MS2 coat protein” value under setting [2] is 21.2 nM, the “apparent KD of MS2 coat protein” value under setting [3] stood at 240 nM and the “apparent KD of MS2 coat protein” value under setting [4] amounted to 301 nM.

“GGAGCCGGCACCGAGGAUAUUCAUAUUAAAACAUGAGGAUCACCCAUGUACAGGAGAACCUGUUGGGAGAAGGCGGAUCGGCUCG [Xeonanis - 25] (puzzle: Same State 2)”: the “apparent KD of MS2 coat protein” value is 29.9 nM under setting [2], 296 nM under setting [3] and 437 nM under setting [4].

On to “GGAGCCGGCACCGAGGAUAUUCAUAUUAAAACAUGAGGAUCACCCAUGUGGGCCAGAAGGCCUUGGGAGAAGGCGGAUCGGCUCG [Xeonanis - 1] (Eterna round: R96, puzzle: Same State 2)”, for which the “apparent KD of MS2 coat protein” value reads like this: (input ligand: FMN 200 uM) 18.6 nM; under setting [1], 141 nM; (input ligand: none) 314 nM.

On to “GGAGCCGGCACCGAGGAUAUUCAUAUUAAAACAUGAGGAUCACCCAUGUGGGCCAGAAGGCCUUGGGAGAAGGCGGAUCGGCUCG [Xeonanis - 1] (puzzle: Same State 2)”, for which the “apparent KD of MS2 coat protein” value under setting [2] was 15.6 nM, the “apparent KD of MS2 coat protein” value under setting [3] stood at 216 nM and the “apparent KD of MS2 coat protein” value under setting [4] is 425 nM.

As for “GGAGCCGGCACGGAGGAUAUUCAUAUUAAAACAUGAGGAUCACCCAUGUAGGCCAGAAGGCCUUGGGAGAAGGCCGAUCGGCUCG [Xeonanis - 15] (Eterna round: R96, puzzle: Same State 2)”, the “apparent KD of MS2 coat protein” value reads like this: (input ligand: FMN 200 uM) 21.2 nM; under setting [1], 258 nM; (input ligand: none) 333 nM.

As to “GGAGCCGGCACGGAGGAUAUUCAUAUUAAAACAUGAGGAUCACCCAUGUAGGCCAGAAGGCCUUGGGAGAAGGCCGAUCGGCUCG [Xeonanis - 15] (puzzle: Same State 2)”, the “apparent KD of MS2 coat protein” value under setting [2] worked out at 21.9 nM, the “apparent KD of MS2 coat protein” value under setting [3] came to 306 nM and the “apparent KD of MS2 coat protein” value under setting [4] came out at 409 nM.

Turning to “GGAGCCGGCAGGCAGGAUAUUCAUAUUAAAACAUGAGGAUCACCCAUGUAGGCCAGAAGGCCUUGGGAGAAGGGCCAUCGGCUCG [Xeonanis - 13] (puzzle: Same State 2)”, the “apparent KD of MS2 coat protein” value runs as follows: under setting [2], 27.8 nM; under setting [3], 225 nM; under setting [4], 569 nM.

Take “GGAGCCGGCCUAGGAUAUUUCAUAAAAGAACAUGAGGAUCACCCAUGUAGGCCAGAAGGCCUUGGGAAGAAGGAGGUCGGCUCC [Loop Effect - G28] (Eterna round: R96, puzzle: Same State NG 2)”: the “apparent KD of MS2 coat protein” value runs as follows: (input ligand: FMN 200 uM) 14.4 nM; under setting [1], 22.4 nM; (input ligand: none) 31.8 nM.

For “GGAGCCGGCCUAGGAUAUUUCAUAAAUUUACAUGAGGAUCACCCAUGUAGGCCAGAAGGCCUUGGGAAGAAGGAGGUCGGCUCC [Loop Effect - U27,U28,U29] (Eterna round: R96, puzzle: Same State NG 2)”, the “apparent KD of MS2 coat protein” value worked out at 11.3 nM (input ligand: FMN 200 uM), 27.5 nM under setting [1] and 40.5 nM (input ligand: none).

“GGAGCCGGUACUGAGGAUAUUCAUAUUAAAACAUGAGGAUCACCCAUGUAGGCCAGAAGGCCUUGGGAGAAGGCGGACCAGCUCG [Atgexeedri - 1] (Eterna round: R96, puzzle: Same State 2)”: the “apparent KD of MS2 coat protein” value (input ligand: FMN 200 uM) worked out at 27.5 nM, the “apparent KD of MS2 coat protein” value under setting [1] amounted to 302 nM and the “apparent KD of MS2 coat protein” value (input ligand: none) was 417 nM.

Take “GGAGCCGGUACUGAGGAUAUUCAUAUUAAAACAUGAGGAUCACCCAUGUAGGCCAGAAGGCCUUGGGAGAAGGCGGACCAGCUCG [Atgexeedri - 1] (puzzle: Same State 2)”: the “apparent KD of MS2 coat protein” value under setting [2] came out at 18.8 nM, the “apparent KD of MS2 coat protein” value under setting [3] worked out at 283 nM and the “apparent KD of MS2 coat protein” value under setting [4] turned out to be 414 nM.

Consider “GGAGCCGGUACUGAGGAUAUUCAUAUUAAAACAUGAGGAUCACCCAUGUAGGCCGGAAGGCCUUGGGAGAAGGCAGACCAGCUCG [Atgexeedri - 7] (puzzle: Same State 2)”, for which the “apparent KD of MS2 coat protein” value reads like this: under setting [2], 23.1 nM; under setting [3], 255 nM; under setting [4], 441 nM.

“GGAGCCGGUACUGAGGAUAUUCAUAUUAAAACAUGAGGAUCACCCAUGUGGGCCAGAAGGCCUUGGGAGAAGGCAGAUCGGCUCC [Biseusra - 3] (puzzle: Same State 2)”: the “apparent KD of MS2 coat protein” value reads like this: under setting [2], 19 nM; under setting [3], 93.3 nM; under setting [4], 145 nM.

On to “GGAGGACAUGAGGAUCACCCAUGUAAAUGGGCGCUAGGAUAUGCGAGAGGGUGGAGAGGAGCAGAAGGAGUGGAUA [JR_SS1_Sub039] (puzzle: Same State 1)”, for which the “apparent KD of MS2 coat protein” value by setting is: under setting [2], 105 nM; under setting [3], 180 nM; under setting [4], 207 nM.

As to “GGAGGACAUGAGGAUCACCCAUGUAGAUGGGCGCUAGGAUAUGCGAGAGGGUAGAGAGAAGCAGAAGGAGUGGAUU [JR_SS1_Sub041] (puzzle: Same State 1)”, the “apparent KD of MS2 coat protein” value amounted to 156 nM under setting [2], 259 nM under setting [3] and 214 nM under setting [4].

Regarding “GGAUCAUGACGAGGAUAUGGUACAUGAGGAUCACCCAUGUAUGUACCAUAACGCGUACGACGAAACCAGAAGGCGUCGUGGUCG [Mat - Same State NG 2 - JL mod - D40] (Eterna round: R96, puzzle: Same State NG 2)”, the “apparent KD of MS2 coat protein” value amounted to 9.88 nM (input ligand: FMN 200 uM), 21 nM under setting [1] and 28 nM (input ligand: none).

For the sequence “GGAUGAUAGACAGGAUAUUGAAUGUAAAUAGGACAAGAAGGGUCAAUGAUUUAAACGACCAGUUACAUGAGGAUCACCCAUGUU [JR_SSNG1_Sub024] (Eterna round: R96, puzzle: Same State NG 1)”, the “apparent KD of MS2 coat protein” value (input ligand: FMN 200 uM) is 29.4 nM, the “apparent KD of MS2 coat protein” value under setting [1] is 36.7 nM and the “apparent KD of MS2 coat protein” value (input ligand: none) turned out to be 36.6 nM.

Regarding “GGAUGAUAGACAGGAUAUUGAAUGUAAUUAGGACAAGAAGGGUCAAUGAUUUAAACGACCAGUUACAUGAGGAUCACCCAUGUU [JR_SSNG1_Sub025] (Eterna round: R96, puzzle: Same State NG 1)”, the “apparent KD of MS2 coat protein” value (input ligand: FMN 200 uM) is 44.9 nM, the “apparent KD of MS2 coat protein” value under setting [1] is 38.1 nM and the “apparent KD of MS2 coat protein” value (input ligand: none) was 49.1 nM.

In the case of “GGAUGAUGGACAGGAUAUUGAUUUUAAUGGUUUCAAGAAGGGUCUUUGAUUUAAACGACCAGUUACAUGAGGAUCACCCAUGUU [JR_SSNG1_Sub032] (Eterna round: R96, puzzle: Same State NG 1)”, the “apparent KD of MS2 coat protein” value was 40.1 nM (input ligand: FMN 200 uM), 36.1 nM under setting [1] and 52 nM (input ligand: none).

For “GGAUGAUUAAUAGGAUAUUAUUUGUAAAUUGGUUAAGAAGGAUUAAUGAUUUAAACGACCUGUUACAUGAGGAUCACCCAUGUU [JR_SSNG1_Sub090] (Eterna round: R96, puzzle: Same State NG 1)”, the “apparent KD of MS2 coat protein” value under setting [1] was determined as 33.2 nM.

As for “GGCAUACAUGAGGAUCACCCAUGUUCAACCUAGAUAGGAUAUGGGCCUCUUGUAUUAGGCCCAGAAGGAUCUGUAA [Regea] (puzzle: Same State 1)”, under setting [3], the “apparent KD of MS2 coat protein” value was determined as 86.4 nM.

For “GGCCGGAGUCAAGGAUAUGCUACCGUUUCGGUAGCAGAAGGUGAUCACAUGAGGAUCACCCAUGUUUACUGGGAGACCACGGCC [JL SSNG1 3.70] (Eterna round: R96, puzzle: Same State NG 1)”, the “apparent KD of MS2 coat protein” value was 105 nM (input ligand: FMN 200 uM), 134 nM under setting [1] and 166 nM (input ligand: none).

Take “GGCCUCUGUCAAGGAUAUGCUACCGUUUCGGUAGCAGAAGGUGAUCACAUGCGGGUCACCCAUGUUUAGGCCAACAGGCCCGCC (Eterna round: R96, puzzle: Same State NG 1)”: the “apparent KD of MS2 coat protein” value is 63 nM (input ligand: FMN 200 uM), 1.08 nM under setting [1] and 3.57 nM (input ligand: none).

Take “GGCCUGCCGCAAGGAUAUGAAGCUUUCGCUCCGUCAGAAGGUGCACAUGAGGAUCACCCAUGUAGGCAGGCCAAGAACUAAAAC [Veveanus] (Eterna round: R96, puzzle: Same State NG 1)”: the “apparent KD of MS2 coat protein” value worked out at 213 nM (input ligand: FMN 200 uM), 42 nM under setting [1] and 123 nM (input ligand: none).

For the sequence “GGCGUAUAAACAUGAGGAUCACCCAUGUAGCGGAGACGCAAUGAGGAUAUCGAUGGGUUUCCCGUCGAGAAGGCAUGGGUCGCC [JL SSNG3 3.93] (Eterna round: R96, puzzle: Same State NG 3)”, the “apparent KD of MS2 coat protein” value came out at 17 nM (input ligand: FMN 200 uM), 79.9 nM under setting [1] and 105 nM (input ligand: none).

Take “GGCUAUCGCGUACGAUAGCUUAAGCAUGUACAUGAGGAUCACCCAUGUCAUGUACAGGCUUUUUGCUCGUCUUAUUG [JL-shm-2.35 JL mod] (puzzle: Sensor for hsa-mir-208a)”: the “apparent KD of MS2 coat protein” value under setting [2] was determined as 517 nM, the “apparent KD of MS2 coat protein” value under setting [3] was found to be 17 nM and the “apparent KD of MS2 coat protein” value under setting [4] came out at 467 nM.

As to “GGCUAUCGCGUACGAUAGCUUAGGCAUGUACAUGAGGAUCACCCAUGUCAUGUACAGGCUUGUUGCUCGUCUUAUUG [JL-shm-2.37 JL mod] (puzzle: Sensor for hsa-mir-208a)”, the “apparent KD of MS2 coat protein” value worked out at 202 nM under setting [2], 15.8 nM under setting [3] and 291 nM under setting [4].

Values taken from the supplement of paper PMC9170038.
